Like-named read-outs stand apart in the source and are kept apart here.
Assays:
[1] = target: human TSH receptor (full length, wild type) expressed in CHO cells (human) (UniProt P16473); assay: cell-based or functional assay
[2] = target: human TSH receptor (full length, wild type) expressed in CHO cells (human) (UniProt P16473); assay: cell-based or functional assay; remark: listed apart in the source
[3] = target: human TSH receptor (full length, wild type) expressed in CHO cells (human) (UniProt P16473); assay: cell-based or functional assay; remark: listed apart in the source
[4] = target: human TSHR (wild type, full length) expressed in CHO cells (human) (UniProt P16473); assay: cell-based or functional assay
[5] = target: human TSHR (wild type, full length) expressed in CHO cells (human) (UniProt P16473); assay: cell-based or functional assay; remark: listed apart in the source
[6] = target: TSHR260-alkaline phosphatase (TSHR260-AP) (human) (UniProt P05187); assay: TSHR260-AP bridge ELISA, full length TSHR on wells; 1 µg/mL, diluted in HBD
[7] = target: TSHR260-alkaline phosphatase (TSHR260-AP) (human) (UniProt P05187); assay: TSHR260-AP bridge ELISA, full length TSHR on wells; 0.5 µg/mL, diluted in HBD
[8] = target: TSHR260-alkaline phosphatase (TSHR260-AP) (human) (UniProt P05187); assay: TSHR260-AP bridge ELISA, full length TSHR on wells; 100 µg/mL, diluted in HBD
[9] = target: TSHR260-alkaline phosphatase (TSHR260-AP) (human) (UniProt P05187); assay: TSHR260-AP bridge ELISA, full length TSHR on wells; 0.01 µg/mL, diluted in HBD
[10] = target: TSHR260-alkaline phosphatase (TSHR260-AP) (human) (UniProt P05187); assay: TSHR260-AP bridge ELISA, full length TSHR on wells; 0.05 µg/mL, diluted in HBD
[11] = target: TSHR260-alkaline phosphatase (TSHR260-AP) (human) (UniProt P05187); assay: TSHR260-AP bridge ELISA, full length TSHR on wells; 10 µg/mL, diluted in assay buffer
[12] = target: TSHR260-alkaline phosphatase (TSHR260-AP) (human) (UniProt P05187); assay: TSHR260-AP bridge ELISA, full length TSHR on wells; 0.01 µg/mL, diluted in assay buffer
[13] = target: TSHR260-alkaline phosphatase (TSHR260-AP) (human) (UniProt P05187); assay: TSHR260-AP bridge ELISA, full length TSHR on wells; 0.05 µg/mL, diluted in assay buffer
TSHR260-AP (human) [14] = assay: TSHR260-AP bridge ELISA (full length TSHR on wells, TSHR260-AP in solution); IgG 0.5 µg/mL diluted in HBD serum
TSHR260-AP (human) [15] = assay: TSHR260-AP bridge ELISA (full length TSHR on wells, TSHR260-AP in solution); IgG 100 µg/mL diluted in HBD serum
TSHR260-AP (human) [16] = assay: TSHR260-AP bridge ELISA (full length TSHR on wells, TSHR260-AP in solution); IgG 250 µg/mL diluted in HBD serum
TSHR260-AP (human) [17] = assay: TSHR260-AP bridge ELISA (full length TSHR on wells, TSHR260-AP in solution); IgG 0.01 µg/mL diluted in HBD serum
TSHR260-AP (human) [18] = assay: TSHR260-AP bridge ELISA (full length TSHR on wells, TSHR260-AP in solution); IgG 1 µg/mL diluted in assay buffer
TSHR260-AP (human) [19] = assay: TSHR260-AP bridge ELISA (full length TSHR on wells, TSHR260-AP in solution); IgG 0.005 µg/mL diluted in HBD serum
TSHR260-AP (human) [20] = assay: TSHR260-AP bridge ELISA (full length TSHR on wells, TSHR260-AP in solution); IgG 0.1 µg/mL diluted in assay buffer
TSHR260-AP (human) [21] = assay: TSHR260-AP bridge ELISA (full length TSHR on wells, TSHR260-AP in solution); IgG 0.5 µg/mL diluted in assay buffer
TSHR260-AP (human) [22] = assay: TSHR260-AP bridge ELISA (full length TSHR on wells, TSHR260-AP in solution); IgG 0.01 µg/mL diluted in assay buffer
TSHR260-AP (human) [23] = assay: TSHR260-AP bridge ELISA (full length TSHR on wells, TSHR260-AP in solution); IgG 0.05 µg/mL diluted in assay buffer
TSHR260-AP (human) [24] = assay: TSHR260-AP bridge ELISA (full length TSHR on wells, TSHR260-AP in solution); IgG 0.005 µg/mL diluted in assay buffer

Substance: 9D33 IgG (antibody)
- % Inhibition; T4 serum + 100 µg/mL 9D33 [1]: 94.8%
- % Inhibition; T5 serum + 100 µg/mL 9D33 [1]: 95.6%
- % Inhibition; T6 serum + 100 µg/mL 9D33 [1]: 94%
- Cyclic AMP concentration; 100 µg/mL 9D33 alone [1]: 2 pmol/mL
- Cyclic AMP concentration; HBD + 100 µg/mL 9D33 [1]: 3.9 pmol/mL
- Cyclic AMP concentration; T4 serum + 100 µg/mL 9D33 [1]: 4.1 pmol/mL
- Cyclic AMP concentration; T5 serum + 100 µg/mL 9D33 [1]: 2.9 pmol/mL
- Cyclic AMP concentration; T6 serum + 100 µg/mL 9D33 [1]: 5 pmol/mL
- % Inhibition; T7 serum + 100 µg/mL 9D33 IgG [2]: 93%
- % Inhibition; T8 serum + 100 µg/mL 9D33 IgG [2]: 95%
- % Inhibition; T9 serum + 100 µg/mL 9D33 IgG [2]: 87.2%
- Cyclic AMP concentration; 100 µg/mL 9D33 IgG alone [2]: 2.4 pmol/mL
- Cyclic AMP concentration; HBD + 100 µg/mL 9D33 IgG [2]: 5.4 pmol/mL
- Cyclic AMP concentration; T7 serum + 100 µg/mL 9D33 IgG [2]: 6.3 pmol/mL
- Cyclic AMP concentration; T8 serum + 100 µg/mL 9D33 IgG [2]: 4.3 pmol/mL
- Cyclic AMP concentration; T9 serum + 100 µg/mL 9D33 IgG [2]: 7.2 pmol/mL
- % Inhibition; T10 serum + 100 µg/mL 9D33 IgG [3]: 95.4%
- % Inhibition; T11 serum + 100 µg/mL 9D33 IgG [3]: 87.1%
- % Inhibition; T12 serum + 100 µg/mL 9D33 IgG [3]: 91.7%
- Cyclic AMP concentration; 100 µg/mL 9D33 IgG alone [3]: 1.9 pmol/mL
- Cyclic AMP concentration; HBD + 100 µg/mL 9D33 IgG [3]: 3.2 pmol/mL
- Cyclic AMP concentration; T10 serum + 100 µg/mL 9D33 IgG [3]: 2.6 pmol/mL
- Cyclic AMP concentration; T11 serum + 100 µg/mL 9D33 IgG [3]: 5.3 pmol/mL
- Cyclic AMP concentration; T12 serum + 100 µg/mL 9D33 IgG [3]: 3.6 pmol/mL
- % Inhibition of T13 serum stimulation; 100 µg/mL 9D33 IgG [4]: 92.2%
- % Inhibition of T14 serum stimulation; 100 µg/mL 9D33 IgG [4]: 89.7%
- % Inhibition of T15 serum stimulation; 100 µg/mL 9D33 IgG [4]: 92.4%
- Cyclic AMP concentration; 100 µg/mL 9D33 IgG alone [4]: 2.3 pmol/mL
- Cyclic AMP concentration; HBD + 100 µg/mL 9D33 IgG [4]: 3.3 pmol/mL
- Cyclic AMP concentration; T13 serum + 100 µg/mL 9D33 IgG [4]: 3.8 pmol/mL
- Cyclic AMP concentration; T14 serum + 100 µg/mL 9D33 IgG [4]: 2.8 pmol/mL
- Cyclic AMP concentration; T15 serum + 100 µg/mL 9D33 IgG [4]: 3.9 pmol/mL
- % Inhibition of T8 serum stimulation; 0.01 µg/mL 9D33 IgG [5]: 12%
- % Inhibition of T8 serum stimulation; 0.1 µg/mL 9D33 IgG [5]: 56%
- % Inhibition of T8 serum stimulation; 1 µg/mL 9D33 IgG [5]: 91%
- % Inhibition of T8 serum stimulation; 10 µg/mL 9D33 IgG [5]: 93%
- % Inhibition of T8 serum stimulation; 100 µg/mL 9D33 IgG [5]: 93%
- Cyclic AMP concentration; 0.01 µg/mL 9D33 IgG + T8 [5]: 45.8 pmol/mL
- Cyclic AMP concentration; 0.1 µg/mL 9D33 IgG + T8 [5]: 22.9 pmol/mL
- Cyclic AMP concentration; 1 µg/mL 9D33 IgG + T8 [5]: 4.7 pmol/mL
- Cyclic AMP concentration; 10 µg/mL 9D33 IgG + T8 [5]: 3.7 pmol/mL
- Cyclic AMP concentration; 100 µg/mL 9D33 IgG + T8 [5]: 3.6 pmol/mL

Substance: M22 IgG (antibody)
- Mean absorbance at 405 nm (absorbance at 405 nm) [6]: 0.726
- Mean absorbance at 405 nm (absorbance at 405 nm) [7]: 0.657
- Mean absorbance at 405 nm (absorbance at 405 nm) [8]: 0.851
- Mean absorbance at 405 nm (absorbance at 405 nm) [9]: 0.03
- Mean absorbance at 405 nm (absorbance at 405 nm) [10]: 0.204
- Mean absorbance at 405 nm (absorbance at 405 nm) [11]: 0.872
- Mean absorbance at 405 nm (absorbance at 405 nm) [12]: 0.101
- Mean absorbance at 405 nm (absorbance at 405 nm) [13]: 0.484
- Mean absorbance at 405 nm (absorbance at 405 nm) (TSHR260-AP (human) [14]): 0.657
- Mean absorbance at 405 nm (absorbance at 405 nm) (TSHR260-AP (human) [15]): 0.851
- Mean absorbance at 405 nm (absorbance at 405 nm) (TSHR260-AP (human) [16]): 0.833
- Mean absorbance at 405 nm (absorbance at 405 nm) (TSHR260-AP (human) [17]): 0.03
- Mean absorbance at 405 nm (absorbance at 405 nm) (TSHR260-AP (human) [18]): 0.821
- Mean absorbance at 405 nm (absorbance at 405 nm) (TSHR260-AP (human) [19]): 0.045
- Mean absorbance at 405 nm (absorbance at 405 nm) (TSHR260-AP (human) [20]): 0.653
- Mean absorbance at 405 nm (absorbance at 405 nm) (TSHR260-AP (human) [21]): 0.776
- Mean absorbance at 405 nm (absorbance at 405 nm) (TSHR260-AP (human) [22]): 0.101
- Mean absorbance at 405 nm (absorbance at 405 nm) (TSHR260-AP (human) [23]): 0.484
- Mean absorbance at 405 nm (absorbance at 405 nm) (TSHR260-AP (human) [24]): 0.075

Source: patent publication US20110300138A1 (published 2011)
